The text below walks through data of article PMC7602980.

For assay [1], the target named is Cx43CT CT (Rattus norvegicus) (UniProt P08050). Conditions: cited from earlier work.
A further assay addresses Cx43CT_(236-382) (rat) (UniProt P08050).

Chain of Drebrin (Q16643 2-649): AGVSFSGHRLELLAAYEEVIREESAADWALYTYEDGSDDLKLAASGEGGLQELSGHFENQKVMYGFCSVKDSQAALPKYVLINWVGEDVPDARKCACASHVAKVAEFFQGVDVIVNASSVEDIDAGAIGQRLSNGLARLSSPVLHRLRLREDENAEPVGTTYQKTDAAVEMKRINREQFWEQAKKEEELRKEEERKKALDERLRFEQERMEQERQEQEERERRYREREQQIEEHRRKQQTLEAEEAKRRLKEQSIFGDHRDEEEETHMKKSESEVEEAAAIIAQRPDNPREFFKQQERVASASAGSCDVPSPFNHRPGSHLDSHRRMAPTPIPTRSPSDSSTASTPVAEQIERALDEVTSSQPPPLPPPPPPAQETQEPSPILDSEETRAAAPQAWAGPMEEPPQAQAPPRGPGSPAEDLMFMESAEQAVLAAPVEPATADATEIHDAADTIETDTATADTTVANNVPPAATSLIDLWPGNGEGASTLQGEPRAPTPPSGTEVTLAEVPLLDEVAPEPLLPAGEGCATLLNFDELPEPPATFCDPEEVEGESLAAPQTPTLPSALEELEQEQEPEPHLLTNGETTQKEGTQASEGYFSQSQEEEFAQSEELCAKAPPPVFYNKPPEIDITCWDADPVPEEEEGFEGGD

On to Drebrin (from UniProt Q16643), for which the Kd in assay [1] was 300 µM.
As for “calmodulin (from UniProt P0DP23 1-149) (natural protein)”, in the assay with Cx43CT_(236-382) (rat), the inhibition of ERK2 phosphorylation of GST-Cx43CT (236-382) (in vitro kinase assay, Western blot with Cx43 pS279/S282 antibodies) in presence of CaM (~90% saturation) came out at 30% and the inhibition of Src phosphorylation of GST-Cx43CT (236-382) (in vitro kinase assay, Western blot with Cx43 pY265 antibody) in presence of CaM (~90% saturation) was 90%.

Broadly, the Kd is a measure of binding affinity in units of concentration.
